From paper PMC10786891, “Massively parallel profiling of RNA-targeting CRISPR-Cas13d” come the findings set out here.

The chains are these.
T1: EsCas13d, nuclease-dead (Eubacterium siraeum, UniProt B0MS50, R295A;H300A;R849A;H854A)
T1 sequence: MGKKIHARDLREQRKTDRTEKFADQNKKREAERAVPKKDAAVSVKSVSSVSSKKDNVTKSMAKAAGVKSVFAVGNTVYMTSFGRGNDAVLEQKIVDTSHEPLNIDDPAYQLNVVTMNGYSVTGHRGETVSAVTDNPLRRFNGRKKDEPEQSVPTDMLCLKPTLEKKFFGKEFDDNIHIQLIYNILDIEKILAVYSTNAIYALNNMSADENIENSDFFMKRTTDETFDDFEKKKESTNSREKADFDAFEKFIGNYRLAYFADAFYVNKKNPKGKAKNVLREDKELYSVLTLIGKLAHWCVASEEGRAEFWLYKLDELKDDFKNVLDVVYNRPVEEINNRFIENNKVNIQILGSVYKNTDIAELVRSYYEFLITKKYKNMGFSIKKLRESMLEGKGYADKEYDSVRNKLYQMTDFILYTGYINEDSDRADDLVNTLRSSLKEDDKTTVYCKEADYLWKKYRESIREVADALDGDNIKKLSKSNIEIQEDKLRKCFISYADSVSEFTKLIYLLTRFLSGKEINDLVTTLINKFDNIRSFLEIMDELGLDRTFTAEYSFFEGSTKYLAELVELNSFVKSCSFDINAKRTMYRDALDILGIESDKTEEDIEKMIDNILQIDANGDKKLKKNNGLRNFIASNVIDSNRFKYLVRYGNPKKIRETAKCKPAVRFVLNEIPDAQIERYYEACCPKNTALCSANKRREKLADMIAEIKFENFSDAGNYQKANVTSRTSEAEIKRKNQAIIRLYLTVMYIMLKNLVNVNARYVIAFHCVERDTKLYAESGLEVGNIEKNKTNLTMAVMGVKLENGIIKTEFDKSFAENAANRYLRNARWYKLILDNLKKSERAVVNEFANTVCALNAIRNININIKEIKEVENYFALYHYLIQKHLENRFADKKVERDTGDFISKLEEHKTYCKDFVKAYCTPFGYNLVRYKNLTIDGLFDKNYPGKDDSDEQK

B1: target 1 A1U,A14G (mixed)
RNA 1: CACCCGUGCAAAAAUGCAGGGGUCUAAAACUGAGCGGAUAACCUCUCUAUGG
RNA 2: GGGAAUGGAUCCACAUCUACGAAUUCGUACCAUAGAGGGGUUAUCCGCUCUCCGAGAUCGGAAGAGCACACGU
B2: target 1 insU 3' of 22,insA 3' of 4 (mixed)
RNA 1: CACCCGUGCAAAAAUGCAGGGGUCUAAAACUGAGCGGAUAACCUCUCUAUGG
RNA 2: GGGAAUGGAUCCACAUCUACGAAUUCGUACUCAUAGAGAGGUUAUCCGCAUCACCGAGAUCGGAAGAGCACACGU
B3: target 1 A9C,A16C (mixed)
RNA 1: CACCCGUGCAAAAAUGCAGGGGUCUAAAACUGAGCGGAUAACCUCUCUAUGG
RNA 2: GGGAAUGGAUCCACAUCUACGAAUUCGUACCAUAGCGAGGUUCUCCGCUCACCGAGAUCGGAAGAGCACACGU
B4: target 2 MT 5'PFS AGC 3'PFS UGU (mixed)
RNA 1: CACCCGUGCAAAAUUGCAGGGGUCUAAAACCUUCUCCAAAUUGUUUCAUCCU
RNA 2: GGGAAUGGAUCCACAUCUACGAAUUCAGCAGGAUGAAACAAUUUGGAGAAGUGUAGAUCGGAAGAGCACACGU
B5: target 2 MT 5'PFS AGC 3'PFS AAC (mixed)
RNA 1: CACCCGUGCAAAAUUGCAGGGGUCUAAAACCUUCUCCAAAUUGUUUCAUCCU
RNA 2: GGGAAUGGAUCCACAUCUACGAAUUCAGCAGGAUGAAACAAUUUGGAGAAGAACAGAUCGGAAGAGCACACGU
B6: target 2 MT 5'PFS AGC 3'PFS UGC (mixed)
RNA 1: CACCCGUGCAAAAUUGCAGGGGUCUAAAACCUUCUCCAAAUUGUUUCAUCCU
RNA 2: GGGAAUGGAUCCACAUCUACGAAUUCAGCAGGAUGAAACAAUUUGGAGAAGUGCAGAUCGGAAGAGCACACGU
B7: target 2 MT 5'PFS AGC 3'PFS AAG (mixed)
RNA 1: CACCCGUGCAAAAUUGCAGGGGUCUAAAACCUUCUCCAAAUUGUUUCAUCCU
RNA 2: GGGAAUGGAUCCACAUCUACGAAUUCAGCAGGAUGAAACAAUUUGGAGAAGAAGAGAUCGGAAGAGCACACGU
B8: target 2 MT 5'PFS AGC 3'PFS CGA (mixed)
RNA 1: CACCCGUGCAAAAUUGCAGGGGUCUAAAACCUUCUCCAAAUUGUUUCAUCCU
RNA 2: GGGAAUGGAUCCACAUCUACGAAUUCAGCAGGAUGAAACAAUUUGGAGAAGCGAAGAUCGGAAGAGCACACGU
B9: target 2 MT 5'PFS AGC 3'PFS CGG (mixed)
RNA 1: CACCCGUGCAAAAUUGCAGGGGUCUAAAACCUUCUCCAAAUUGUUUCAUCCU
RNA 2: GGGAAUGGAUCCACAUCUACGAAUUCAGCAGGAUGAAACAAUUUGGAGAAGCGGAGAUCGGAAGAGCACACGU
B10: target 2 MT 5'PFS GUU 3'PFS AAG (mixed)
RNA 1: CACCCGUGCAAAAUUGCAGGGGUCUAAAACCUUCUCCAAAUUGUUUCAUCCU
RNA 2: GGGAAUGGAUCCACAUCUACGAAUUCGUUAGGAUGAAACAAUUUGGAGAAGAAGAGAUCGGAAGAGCACACGU
B11: target 2 MT 5'PFS UGU 3'PFS CAG (mixed)
RNA 1: CACCCGUGCAAAAUUGCAGGGGUCUAAAACCUUCUCCAAAUUGUUUCAUCCU
RNA 2: GGGAAUGGAUCCACAUCUACGAAUUCUGUAGGAUGAAACAAUUUGGAGAAGCAGAGAUCGGAAGAGCACACGU
B12: target 2 MT 5'PFS GUU 3'PFS AAU (mixed)
RNA 1: CACCCGUGCAAAAUUGCAGGGGUCUAAAACCUUCUCCAAAUUGUUUCAUCCU
RNA 2: GGGAAUGGAUCCACAUCUACGAAUUCGUUAGGAUGAAACAAUUUGGAGAAGAAUAGAUCGGAAGAGCACACGU
B13: target 2 MT 5'PFS UCU 3'PFS UGA (mixed)
RNA 1: CACCCGUGCAAAAUUGCAGGGGUCUAAAACCUUCUCCAAAUUGUUUCAUCCU
RNA 2: GGGAAUGGAUCCACAUCUACGAAUUCUCUAGGAUGAAACAAUUUGGAGAAGUGAAGAUCGGAAGAGCACACGU
B14: target 2 MT 5'PFS UAU 3'PFS UGU (mixed)
RNA 1: CACCCGUGCAAAAUUGCAGGGGUCUAAAACCUUCUCCAAAUUGUUUCAUCCU
RNA 2: GGGAAUGGAUCCACAUCUACGAAUUCUAUAGGAUGAAACAAUUUGGAGAAGUGUAGAUCGGAAGAGCACACGU
B15: target 2 MT 5'PFS AGC 3'PFS CGC (mixed)
RNA 1: CACCCGUGCAAAAUUGCAGGGGUCUAAAACCUUCUCCAAAUUGUUUCAUCCU
RNA 2: GGGAAUGGAUCCACAUCUACGAAUUCAGCAGGAUGAAACAAUUUGGAGAAGCGCAGAUCGGAAGAGCACACGU
B16: target 2 MT 5'PFS CAU 3'PFS AGA (mixed)
RNA 1: CACCCGUGCAAAAUUGCAGGGGUCUAAAACCUUCUCCAAAUUGUUUCAUCCU
RNA 2: GGGAAUGGAUCCACAUCUACGAAUUCCAUAGGAUGAAACAAUUUGGAGAAGAGAAGAUCGGAAGAGCACACGU
B17: target 2 MT 5'PFS UCU 3'PFS UGC (mixed)
RNA 1: CACCCGUGCAAAAUUGCAGGGGUCUAAAACCUUCUCCAAAUUGUUUCAUCCU
RNA 2: GGGAAUGGAUCCACAUCUACGAAUUCUCUAGGAUGAAACAAUUUGGAGAAGUGCAGAUCGGAAGAGCACACGU
B18: target 2 MT 5'PFS AGA 3'PFS AAC (mixed)
RNA 1: CACCCGUGCAAAAUUGCAGGGGUCUAAAACCUUCUCCAAAUUGUUUCAUCCU
RNA 2: GGGAAUGGAUCCACAUCUACGAAUUCAGAAGGAUGAAACAAUUUGGAGAAGAACAGAUCGGAAGAGCACACGU
B19: target 2 MT 5'PFS UGU 3'PFS CAC (mixed)
RNA 1: CACCCGUGCAAAAUUGCAGGGGUCUAAAACCUUCUCCAAAUUGUUUCAUCCU
RNA 2: GGGAAUGGAUCCACAUCUACGAAUUCUGUAGGAUGAAACAAUUUGGAGAAGCACAGAUCGGAAGAGCACACGU
B20: target 2 MT 5'PFS AGC 3'PFS AAA (mixed)
RNA 1: CACCCGUGCAAAAUUGCAGGGGUCUAAAACCUUCUCCAAAUUGUUUCAUCCU
RNA 2: GGGAAUGGAUCCACAUCUACGAAUUCAGCAGGAUGAAACAAUUUGGAGAAGAAAAGAUCGGAAGAGCACACGU
B21: target 2 MT 5'PFS CUU 3'PFS ACU (mixed)
RNA 1: CACCCGUGCAAAAUUGCAGGGGUCUAAAACCUUCUCCAAAUUGUUUCAUCCU
RNA 2: GGGAAUGGAUCCACAUCUACGAAUUCCUUAGGAUGAAACAAUUUGGAGAAGACUAGAUCGGAAGAGCACACGU
B22: target 2 MT 5'PFS AGA 3'PFS AAA (mixed)
RNA 1: CACCCGUGCAAAAUUGCAGGGGUCUAAAACCUUCUCCAAAUUGUUUCAUCCU
RNA 2: GGGAAUGGAUCCACAUCUACGAAUUCAGAAGGAUGAAACAAUUUGGAGAAGAAAAGAUCGGAAGAGCACACGU
B23: target 2 MT 5'PFS AGU 3'PFS CGC (mixed)
RNA 1: CACCCGUGCAAAAUUGCAGGGGUCUAAAACCUUCUCCAAAUUGUUUCAUCCU
RNA 2: GGGAAUGGAUCCACAUCUACGAAUUCAGUAGGAUGAAACAAUUUGGAGAAGCGCAGAUCGGAAGAGCACACGU
B24: target 2 MT 5'PFS AGA 3'PFS AAG (mixed)
RNA 1: CACCCGUGCAAAAUUGCAGGGGUCUAAAACCUUCUCCAAAUUGUUUCAUCCU
RNA 2: GGGAAUGGAUCCACAUCUACGAAUUCAGAAGGAUGAAACAAUUUGGAGAAGAAGAGAUCGGAAGAGCACACGU
B25: target 2 MT 5'PFS GUC 3'PFS CAU (mixed)
RNA 1: CACCCGUGCAAAAUUGCAGGGGUCUAAAACCUUCUCCAAAUUGUUUCAUCCU
RNA 2: GGGAAUGGAUCCACAUCUACGAAUUCGUCAGGAUGAAACAAUUUGGAGAAGCAUAGAUCGGAAGAGCACACGU
B26: target 2 MT 5'PFS GUU 3'PFS AAC (mixed)
RNA 1: CACCCGUGCAAAAUUGCAGGGGUCUAAAACCUUCUCCAAAUUGUUUCAUCCU
RNA 2: GGGAAUGGAUCCACAUCUACGAAUUCGUUAGGAUGAAACAAUUUGGAGAAGAACAGAUCGGAAGAGCACACGU
B27: target 2 MT 5'PFS GUU 3'PFS AAA (mixed)
RNA 1: CACCCGUGCAAAAUUGCAGGGGUCUAAAACCUUCUCCAAAUUGUUUCAUCCU
RNA 2: GGGAAUGGAUCCACAUCUACGAAUUCGUUAGGAUGAAACAAUUUGGAGAAGAAAAGAUCGGAAGAGCACACGU

For this data set, the target named is T1, EsCas13d, nuclease-dead. The data set can be described thus: crRNA (strand 1, pre-loaded); Mg2+; 40 mM Tris-HCl pH 7.5, 150 mM NaCl, 6 mM MgCl2, 1 mM DTT, 0.1% Tween-20, 0.2 mg/ml BSA; 25 C; 10 min per concentration, then washed. The note with it: tags: His6-TwinStrep-SUMO cleaved; N-terminal SNAP kept (SNAP-Surface 488); label: 3' end held by stalled T7 RNA polymerase.
Turning to B1, the affinity, expressed as Kd, was 17 ± 1.3 nM.

Turning to B2, the Kd – broadly, the free concentration of one partner at which half of the binding sites on the other are occupied at equilibrium, for simple one-to-one binding – amounted to 23 ± 1.9 nM.

B3 registered a Kd of 86 ± 16 nM.

Regarding B4, binding was put at a Kd of 12.7 ± 1.8 nM.

As for B5, the affinity, expressed as Kd, was 13 ± 4 nM.

The molecule B6 returned a Kd of 8.2 ± 1.4 nM.

Molecule B7 registered a Kd of 9.2 ± 2 nM.

As to B8, the Kd came to 15 ± 5 nM.

B9 had a Kd of 5.8 ± 1 nM.

Take B10: binding was characterised by a dissociation constant (Kd) of 9.3 ± 0.8 nM.

With B11, the Kd is 9 ± 0.9 nM.

B12 displayed a Kd of 7.5 ± 0.6 nM.

For B13, binding was characterised by a dissociation constant (Kd) of 14.5 ± 3.5 nM.

Consider B14, for which the Kd stood at 29.1 ± 3.4 nM.

B15 showed a Kd of 7.5 ± 0.7 nM.

Molecule B16 yielded a Kd of 2.8 ± 0.6 nM.

The molecule B17 came in with a Kd of 11.7 ± 2.1 nM.

The molecule B18 showed a dissociation constant (Kd) of 5.8 ± 1 nM.

As to B19, the Kd was found to be 16 ± 2.5 nM.

Regarding B20, the dissociation constant Kd turned out to be 13 ± 4 nM.

In the case of B21, the affinity, expressed as Kd, was 6.3 ± 0.9 nM.

In the case of B22, the affinity, expressed as Kd, was 4.5 ± 1.2 nM.

Consider B23, for which the Kd is 14.6 ± 1.9 nM.

Regarding B24, the Kd amounted to 7.1 ± 1.3 nM.

Molecule B25 returned a Kd of 10.3 ± 1.4 nM.

Take B26: binding was characterised by a dissociation constant (Kd) of 11.9 ± 1.3 nM.

Molecule B27 gave a Kd of 14 ± 7 nM.
